According to article PMC11149935, “SAFB regulates hippocampal stem cell fate by targeting Drosha to destabilize Nfib mRNA” (eLife, 2024):

Molecular target: T1, Drosha (endogenous, N2A cells) (mouse (endogenous in N2A), UniProt Q5HZJ0 1-1373)
T1 construct: Drosha, endogenous protein of N2A neuroblastoma cells (ATCC CCL-131); source: endogenous, N2A lysate
T1 sequence (looked up): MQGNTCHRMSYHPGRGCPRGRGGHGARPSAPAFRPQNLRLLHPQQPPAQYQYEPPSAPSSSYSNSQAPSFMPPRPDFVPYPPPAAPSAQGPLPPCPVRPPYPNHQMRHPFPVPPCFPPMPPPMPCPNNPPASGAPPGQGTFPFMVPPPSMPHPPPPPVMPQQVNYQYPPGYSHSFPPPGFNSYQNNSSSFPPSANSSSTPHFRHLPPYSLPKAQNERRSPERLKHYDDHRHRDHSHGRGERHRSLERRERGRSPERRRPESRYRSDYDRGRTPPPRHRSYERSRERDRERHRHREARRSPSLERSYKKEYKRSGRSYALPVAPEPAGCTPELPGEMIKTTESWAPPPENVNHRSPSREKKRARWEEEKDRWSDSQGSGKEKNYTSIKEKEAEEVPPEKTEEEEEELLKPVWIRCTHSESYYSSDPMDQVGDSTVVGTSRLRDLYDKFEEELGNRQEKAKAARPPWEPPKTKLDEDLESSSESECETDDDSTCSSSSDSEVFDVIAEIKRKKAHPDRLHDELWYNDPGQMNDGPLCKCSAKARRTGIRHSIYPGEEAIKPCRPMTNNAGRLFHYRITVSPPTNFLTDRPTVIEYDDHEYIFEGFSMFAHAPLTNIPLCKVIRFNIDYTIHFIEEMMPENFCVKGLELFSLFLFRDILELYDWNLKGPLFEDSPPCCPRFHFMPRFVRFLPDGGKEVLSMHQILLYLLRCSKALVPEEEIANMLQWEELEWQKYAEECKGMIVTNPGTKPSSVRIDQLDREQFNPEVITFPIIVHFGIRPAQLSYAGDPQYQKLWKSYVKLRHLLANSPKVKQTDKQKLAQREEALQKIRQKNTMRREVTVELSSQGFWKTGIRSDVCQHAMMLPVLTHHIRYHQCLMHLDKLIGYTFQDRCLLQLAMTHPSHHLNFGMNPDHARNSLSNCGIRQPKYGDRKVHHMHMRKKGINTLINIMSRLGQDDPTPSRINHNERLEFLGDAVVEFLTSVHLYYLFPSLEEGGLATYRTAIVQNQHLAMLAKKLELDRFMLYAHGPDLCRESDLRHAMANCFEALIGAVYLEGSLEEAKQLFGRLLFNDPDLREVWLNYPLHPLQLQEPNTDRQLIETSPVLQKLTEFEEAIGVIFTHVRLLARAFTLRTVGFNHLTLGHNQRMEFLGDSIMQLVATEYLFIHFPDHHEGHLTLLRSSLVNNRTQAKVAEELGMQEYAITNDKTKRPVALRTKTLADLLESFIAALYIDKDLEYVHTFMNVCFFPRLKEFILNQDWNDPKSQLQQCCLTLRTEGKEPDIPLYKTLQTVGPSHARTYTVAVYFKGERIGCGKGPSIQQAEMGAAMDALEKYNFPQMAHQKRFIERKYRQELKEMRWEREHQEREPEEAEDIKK
Assay: co-IP; N2A cells transfected with SAFB-HA or SAFB-ΔRE-HA, 48 hr; IP of endogenous Drosha, anti-HA immunoblot, densitometry relative to Drosha; IgG isotype control IP
Settings: partners not purified

B1: SAFB-ΔRE-HA (natural protein, UniProt Q15424 1-915, looked up)
chain: MAETLSGLGDSGAAGAAALSSASSETGTRRLSDLRVIDLRAELRKRNVDSSGNKSVLMERLKKAIEDEGGNPDEIEITSEGNKKTSKRSSKGRKPEEEGVEDNGLEENSGDGQEDVETSLENLQDIDIMDISVLDEAEIDNGSVADCVEDDDADNLQESLSDSRELVEGEMKELPEQLQEHAIEDKETINNLDTSSSDFTILQEIEEPSLEPENEKILDILGETCKSEPVKEESSELEQPFAQDTSSVGPDRKLAEEEDLFDSAHPEEGDLDLASESTAHAQSSKADSLLAVVKREPAEQPGDGERTDCEPVGLEPAVEQSSAASELAEASSEELAEAPTEAPSPEARDSKEDGRKFDFDACNEVPPAPKESSTSEGADQKMSSPEDDSDTKRLSKEEKGRSSCGRNFWVSGLSSTTRATDLKNLFSKYGKVVGAKVVTNARSPGARCYGFVTMSTAEEATKCINHLHKTELHGKMISVEKAKNEPVGKKTSDKRDSDGKKEKSSNSDRSTNLKRDDKCDRKDDAKKGDDGSGEKSKDQDDQKPGPSERSRAVRRPYDLDRRDDAYWPEAKRAALDERYHSDFNRQDRFHDFDHRDRGRYPDHSVDRREGSRSMMGEREGQHYPERHGGPERHGRDSRDGWGGYGSDKRMSEGRGLPPPPRRDWGDHGRREDDRSWQGTADGGMMDRDHKRWQGGERSMSGHSGPGHMMNRGGMSGRGSFAPGGASRGHPIPHGGMQGGFGGQSRGSRPSDARFTRRY
notes: SAFB lacking the RE-rich region (amino acids 552-708), made from CAG::Safb-HA-IRES-Cfp by Q5 site-directed mutagenesis; Parent is m26; Also expressed in DG NSCs for the reporter assay; also called CAG::Safb-ΔRE-HA-IRES-Cfp; source: N2A, transfected (TransFectin), in lysate
With B1 the “fold reduction in binding against SAFB WT” value was 5.7 fold.
